From patent publication US20260224721A1, “ANTI-CD70 ANTIBODY-DRUG CONJUGATES” (Ambrx, Inc., priority 2023, published 2026)
Square brackets hold non-standard residues; d marks the D form. Peptide text beside a SMILES is read from it. * marks the point of attachment. Dolaproine = CO[C@@H]([C@@H]1CCCN1)[C@@H](C)C(=O)O; Dil = CC[C@H](C)[C@H](NC)[C@@H](CC(=O)O)OC; X1 = CC(C)[C@@H](C(=O)*)N(C)CCOCCOCCOCCON; X2 = C[C@@H](N*)[C@@H](O)c1ccccc1; NMeV = CN[C@H](C(=O)O)C(C)C

How the values were obtained:
[1] = tested on: 786-OS3 renal carcinoma cells; assay: 786-OS3/PBMC renal cell carcinoma xenograft model, ARX305 and pembrolizumab; format: in vivo, NCG mice; details: study day 36, 5.0 mg/kg dose of pembrolizumab alone, IP QW × 4
Procedure: ARX305 in combination with a checkpoint inhibitor, such as a PD-1/PD-L1 inhibitor, were tested in a renal cell carcinoma (RCC) model. For RCC, ARX305 in combination of pembrolizumab (PD-1 inhibitor) were evaluated in a cell line-derived xenograft tumor model: 786-OS3.
Female NCG mice were housed five (5) per cage in a pathogen-free, limited access room. Food and water were provided ad libitum. Mice were subcutaneously inoculated in the right flank with 5×10^6 786-OS3 renal carcinoma cells mixed with Matrigel. Tumor volumes were measured twice weekly. When tumors reached from about 175 mm^3 to about 200 mm^3 in size, mice were randomized into five (5) groups of 10 mice with approximately equal average tumor volumes. Cryopreserved peripheral blood mononuclear cells (PBMCs) from a single healthy donor were thawed and cultured in Roswell Park Memorial Institut (RPMI) medium+10% fetal bovine serum at 37° C. for 24 hours. PBMCs were harvested and intraperitoneally injected into tumor-bearing mice (10^7/mouse). After 24 hours, mice were injected with vehicle, pembrolizumab (5 mg/kg), ARX305 (0.3 mg/kg), or pembrolizumab (5 mg/kg)+ARX305 (0.3 mg/kg). Dosing was repeated for pembrolizumab weekly for a total of 4 doses and ARX305 every other week for a total of 2 doses. […] Tumor volumes were continually measured twice weekly and FIG. 15 show mean tumor volumes +/−SEM for each group.

MDR/P-gp [2] = biological target: T1, MDR/P-gp (Homo sapiens, UniProt P08183); details: cited from earlier work
BCRP = biological target: T2, BCRP (Homo sapiens, UniProt Q9UNQ0); assay: BCRP substrate assessment; format: in vitro ADME; details: data not shown
T2 sequence (Q9UNQ0 1-655): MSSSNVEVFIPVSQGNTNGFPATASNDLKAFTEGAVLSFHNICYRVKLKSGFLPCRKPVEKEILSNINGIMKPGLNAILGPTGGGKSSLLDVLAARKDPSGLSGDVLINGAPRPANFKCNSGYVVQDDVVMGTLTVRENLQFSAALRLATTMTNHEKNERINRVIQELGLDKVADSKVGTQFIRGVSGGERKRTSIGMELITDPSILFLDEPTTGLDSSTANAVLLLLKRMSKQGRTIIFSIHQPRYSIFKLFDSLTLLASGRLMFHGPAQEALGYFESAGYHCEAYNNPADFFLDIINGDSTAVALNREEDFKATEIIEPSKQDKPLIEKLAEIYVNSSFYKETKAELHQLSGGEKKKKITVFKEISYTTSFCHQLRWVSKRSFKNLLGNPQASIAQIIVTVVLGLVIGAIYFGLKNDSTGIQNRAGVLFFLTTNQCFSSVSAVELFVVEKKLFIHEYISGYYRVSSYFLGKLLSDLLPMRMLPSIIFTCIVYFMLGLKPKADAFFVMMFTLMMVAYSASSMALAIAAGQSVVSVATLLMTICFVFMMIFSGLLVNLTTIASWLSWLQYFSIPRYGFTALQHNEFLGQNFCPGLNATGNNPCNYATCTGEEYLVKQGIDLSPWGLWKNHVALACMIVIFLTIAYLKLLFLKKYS

MDR/P-gp [3] = biological target: T1, MDR/P-gp; assay: MDR pump substrate assessment; format: in vitro ADME; details: data not shown
[4] = biological target: T3, CD70 on the surface of human tumor cell lines (human, UniProt P32970 1-193); assay: cell-based or functional assay
T3 sequence (looked up): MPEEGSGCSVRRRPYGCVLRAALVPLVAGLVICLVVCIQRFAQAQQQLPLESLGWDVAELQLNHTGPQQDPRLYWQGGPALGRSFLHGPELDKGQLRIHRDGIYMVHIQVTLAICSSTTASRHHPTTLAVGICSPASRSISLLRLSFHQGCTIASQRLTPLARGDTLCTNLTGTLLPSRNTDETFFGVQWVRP

human CD70 protein = biological target: T4, human CD70 protein (human, UniProt P32970 39-193); assay: SPR
T4 chain: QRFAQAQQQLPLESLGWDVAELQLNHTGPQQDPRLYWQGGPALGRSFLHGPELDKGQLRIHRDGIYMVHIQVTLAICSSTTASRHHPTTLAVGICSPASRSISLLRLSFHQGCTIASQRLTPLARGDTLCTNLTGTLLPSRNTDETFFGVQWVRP

cynomolgus CD70 protein [5] = biological target: T5, cynomolgus CD70 protein (cynomolgus, UniProt A0A2K5WTU9 39-190); assay: SPR
T5 chain: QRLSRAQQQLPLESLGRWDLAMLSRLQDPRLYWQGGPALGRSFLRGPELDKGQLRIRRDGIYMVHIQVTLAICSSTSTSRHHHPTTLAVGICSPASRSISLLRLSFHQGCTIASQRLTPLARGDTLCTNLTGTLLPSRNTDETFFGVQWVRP

mouse CD70 protein = biological target: T6, mouse CD70 protein (mouse, UniProt O55237 45-195, limits assumed); assay: SPR (Biacore), ADC captured by anti-human IgG (Fc) on CM5 chip, CD70 as analyte
T6 construct: SPR analyte; construct not described; also called rodent CD70
T6 sequence (looked up): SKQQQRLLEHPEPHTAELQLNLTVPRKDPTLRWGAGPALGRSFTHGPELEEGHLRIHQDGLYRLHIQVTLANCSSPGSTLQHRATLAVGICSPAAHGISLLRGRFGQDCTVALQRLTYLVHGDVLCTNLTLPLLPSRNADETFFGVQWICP
Procedure: (§1) Surface plasmon resonance assays were developed in which anti-human IgG (Fc) was diluted to 25 μg/mL in immobilization buffer ([…] Sodium Acetate, pH 5.0) and injected to an activated CM5 sensor chip for 360 seconds at a flow rate of 10 μL/minute. […] After each cycle of interaction analysis, the sensor chip surface was regenerated with 3M magnesium chloride at a flow rate of 20 uL/minute for 30 seconds. Affinity analysis was performed using Biacore Insight Evaluation software, reference channel was used for background subtraction, and a 1:1 binding method was used for curve fitting.

cynomolgus CD70 protein [6] = biological target: T7, cynomolgus CD70 protein (cynomolgus, UniProt A0A2K5WTU9 39-190); assay: SPR (Biacore), ADC captured by anti-human IgG (Fc) on CM5 chip, CD70 as analyte, 1:1 fit
T7 construct: SPR analyte; construct not described
T7 sequence: T5 chain
Procedure: as §1

T1 sequence (P08183 whole entry): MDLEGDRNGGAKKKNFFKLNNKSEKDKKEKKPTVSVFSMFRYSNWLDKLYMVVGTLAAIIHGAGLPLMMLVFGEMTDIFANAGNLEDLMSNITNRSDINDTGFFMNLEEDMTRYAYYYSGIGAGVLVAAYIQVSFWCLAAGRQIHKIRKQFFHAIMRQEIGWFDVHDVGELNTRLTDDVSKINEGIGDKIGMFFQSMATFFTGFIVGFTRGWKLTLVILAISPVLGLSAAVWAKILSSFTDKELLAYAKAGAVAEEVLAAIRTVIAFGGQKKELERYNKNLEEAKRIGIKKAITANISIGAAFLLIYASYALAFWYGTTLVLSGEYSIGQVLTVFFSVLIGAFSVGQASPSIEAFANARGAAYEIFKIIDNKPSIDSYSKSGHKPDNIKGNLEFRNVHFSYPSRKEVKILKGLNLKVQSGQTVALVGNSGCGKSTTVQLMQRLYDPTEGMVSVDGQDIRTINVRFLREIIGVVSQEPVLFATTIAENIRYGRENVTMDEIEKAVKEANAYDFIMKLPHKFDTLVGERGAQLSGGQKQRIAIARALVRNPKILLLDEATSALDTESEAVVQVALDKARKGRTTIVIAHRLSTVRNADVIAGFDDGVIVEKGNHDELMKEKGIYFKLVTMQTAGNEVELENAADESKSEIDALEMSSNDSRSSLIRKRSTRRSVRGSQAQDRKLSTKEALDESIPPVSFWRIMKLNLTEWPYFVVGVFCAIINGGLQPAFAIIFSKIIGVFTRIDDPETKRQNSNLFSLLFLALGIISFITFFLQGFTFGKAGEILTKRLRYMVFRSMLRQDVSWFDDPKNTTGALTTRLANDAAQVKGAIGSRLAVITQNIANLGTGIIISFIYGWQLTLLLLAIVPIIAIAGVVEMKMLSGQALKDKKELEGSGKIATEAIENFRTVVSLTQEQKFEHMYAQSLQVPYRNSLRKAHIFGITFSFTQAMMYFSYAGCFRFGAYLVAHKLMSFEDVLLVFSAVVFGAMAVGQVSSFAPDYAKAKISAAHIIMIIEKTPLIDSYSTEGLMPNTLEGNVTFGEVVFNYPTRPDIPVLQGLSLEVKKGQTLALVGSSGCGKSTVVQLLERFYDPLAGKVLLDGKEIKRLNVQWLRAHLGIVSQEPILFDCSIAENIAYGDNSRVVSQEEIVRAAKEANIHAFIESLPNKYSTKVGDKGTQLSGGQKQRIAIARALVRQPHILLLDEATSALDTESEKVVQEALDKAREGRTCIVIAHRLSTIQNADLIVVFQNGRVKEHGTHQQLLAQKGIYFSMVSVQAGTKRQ

## pembrolizumab: PD-1 inhibitor [reference compound]
[1]
  tumor growth inhibition (TGI): 6%

## CC[C@H](C)[C@@H]([C@@H](CC(=O)N1CCC[C@H]1[C@H](OC)[C@@H](C)C(=O)N[C@H](C)[C@@H](O)c1ccccc1)OC)N(C)C(=O)[C@@H](NC(=O)[C@@H](NC)C(C)C)C(C)C [MMAE, Monomethyl auristatin E] (H-[NMeV]V[Dil][Dolaproine]-X2)
MDR/P-gp [2]
  substrate for MDR pumps: known substrate

## CC[C@H](C)[C@@H]([C@@H](CC(=O)N1CCC[C@H]1[C@H](OC)[C@@H](C)C(=O)N[C@@H](Cc1ccccc1)C(=O)O)OC)N(C)C(=O)[C@@H](NC(=O)[C@H](C(C)C)N(C)CCOCCOCCOCCON)C(C)C [AS269, ((2R,3R)-3-((S)-1-((3R,4S,5S)-4-((S)-2-((S)-14-(aminooxy)-2-isopropyl-3-methyl-6,9,12-trioxa-3-azatetradecanamido)-N,3-dimethylbutanamido)-3-methoxy-5-methylheptanoyl)pyrrolidin-2-yl)-3-methoxy-2-methylpropanoyl)-L-phenylalanine] (X1-V[Dil][Dolaproine]F-OH)
BCRP
  substrate for BCRP: not a substrate
MDR/P-gp [3]
  substrate for MDR/P-gp: not a substrate

B1: anti-CD70-AS269 ADC (antibody, human IgG1, kappa, V domains shown)
VH: EVQLVQSGAEVKKPGATVKISCKVSGYTFTDYYMNWVQQAPGKGLEWMGIINPYNGGTHYNQKFKGRVTITADTSTDTAYMELSSLRSEDTAVYYCATSGYDLYFDYWGQGTLVTVSS
VL: EIVMTQSPATLSVSPGERATLSCKASQNVGTAVAWYQQKPGQAPRLLIYSAFNRYNGIPARFSGSGPGTDFTLTISSLQSEDFAVYYCQQYSTYPLTFGGGTKVEIKR
modifications: para-acetyl-L-phenylalanine (pAF) at position 114 (Kabat numbering; the X of SEQ ID NO: 3), carrying drug-linker AS269 via an oxime bond
notes: Antibody-drug conjugate: humanized IgG1 mAb with one AS269 drug-linker per heavy chain, DAR about 2; also called ARX305; aCD70-AS269
[4]
  Cytotoxic Potency (IC50, nM), 786-O cells (CD70 surface expression 133,000): 0.167 nM
  Cytotoxic Potency (IC50, nM), C666-1 cells (CD70 surface expression 9,200): > 10 nM
  Cytotoxic Potency (IC50, nM), Caki-1 cells (CD70 surface expression 107,000): 0.125 nM
  Cytotoxic Potency (IC50, nM), Hs 611.T cells (CD70 surface expression 6,600): > 10 nM
  Cytotoxic Potency (IC50, nM), Hs766T cells (CD70 surface expression 9,500): > 10 nM
  Cytotoxic Potency (IC50, nM), KMS11 cells (CD70 surface expression 9,400): > 10 nM
  Cytotoxic Potency (IC50, nM), NCI-H40 cells (CD70 surface expression 14,900): 0.18 nM
  Cytotoxic Potency (IC50, nM), NCI-H929 cells (CD70 surface expression 0): > 10 nM
  Cytotoxic Potency (IC50, nM), REC-1 cells (CD70 surface expression 17,300): 0.18 nM
  Cytotoxic Potency (IC50, nM), Raji cells (CD70 surface expression 17,700): > 10 nM
  Cytotoxic Potency (IC50, nM), U251MG cells (CD70 surface expression 65,800): 0.04 nM
  Cytotoxic Potency (IC50, nM), U266 cells (CD70 surface expression 65,000): 0.025 nM
Human CD70 protein
  Kd: 0.228 nM
Cynomolgus CD70 protein [5]
  Kd: 0.684 nM
Mouse CD70 protein
  binding result: no binding
Cynomolgus CD70 protein [6]
  fold difference of affinity between human and cynomolgus CD70: ≤ 3 fold
